Laboratory results as given in patent US20250049888A1, “USE OF THE NEGR1 PROTEIN AND BIOLOGICALLY ACTIVE FRAGMENTS THEREOF IN THE THERAPEUTIC TREATMENT OF ALK-RELATED DISEASES” (FONDAZIONE TELETHON ETS (70%), priority 2021, published 2025).

Legend:
N2a cells [1] = experiment: N2a proliferation, cell number at DIV5; type: cell-based, murine; settings: 200 ng daily, vs GFP
Protocol: Next, 10,000 naive N2a cells were seeded and treated daily with 200 ng Negr1, PepA, PepB, PepC, or GFP. At DIV5, cell number was evaluated.

N2a cells [2] = experiment: N2a cell growth, MTT assay; type: cell-based, murine; settings: 500 ng/ml daily, vs GFP
Protocol: (§1) The 3-(4,5-dimethylthiazol-2-yl)-2,5-diphenyl tetrazolium bromide (MTT) assay was performed to evaluate culture vitality. N2a cells were cultured in a 96-well plate at a concentration of 5×10^3 cell/cm^2. Treatment condition is indicated in the result section. At the end of the treatment, the MTT solution was added to the cell medium at a final concentration of 0.25 mg/mL. The incubation lasted 30 minutes at 37° C. Next, the medium was removed and the formazan precipitates were collected in DMSO (200 μL). The absorbance was measured at 570 nm using a spectrophotometer (Varioskan LUX, Thermofisher) as a proxy for cell viability. Relative cell viability fold is expressed over the control condition.
At the physiological level, Negr1 exists as a GPI-anchored membrane-bound protein and as a soluble protein released upon metalloprotease cleavage (Sanz et al. 2015; Pischedda and Piccoli 2015). Thus, the inventors studied whether ectopic treatment with soluble recombinant Negr1 (Negr1) might modulate cancer cell growth. […] At DIV5, cellular growth was evaluated by MTT assay.
To further narrow down the minimal biologically active sequence within PepA, the PepA structure was analysed in silico. […] At DIV5, cellular growth was evaluated by MTT assay.

[3] = tested on: A549 (adenocarcinoma alveolar basal epithelial cells); experiment: Growth of human cancer-derived cell line, MTT assay; type: cell-based; settings: 200 ng daily, vs GFP
Protocol: as §1
(§2) Next, the capability of Negr1 and peptide PepA to halt the growth of human cancer-derived cell lines, namely U87 (glioblastoma), SK-Mel5 (melanoma), MCF7 (breast adenocarcinoma), A549 (adenocarcinoma alveolar basal epithelial cells), and SH-SY5Y (neuroblastoma) was tested. To this aim, each line was treated daily with 200 ng GFP, rNegr1, or PepA. At DIV5, cellular growth was evaluated by MTT assay. […] Such results are in good agreement with the expression of the receptor ALK, that has been experimentally detected in cancer cell lines of ectodermal origin (including small cell lung carcinoma, breast carcinoma, melanoma, neuroblastoma, and glioblastoma) (Dirks et al. 2002).

[4] = tested on: MCF7 (breast adenocarcinoma); experiment: as above; type: cell-based; settings: 200 ng daily, vs GFP
Protocol: as §1, §2

SH-SY5Y (neuroblastoma) = experiment: as above; type: cell-based; settings: 200 ng daily, vs GFP
Protocol: as §1, §2

SK-Mel5 (melanoma) = experiment: as above; type: cell-based; settings: 200 ng daily, vs GFP
Protocol: as §1, §2

U87 (glioblastoma) = experiment: as above; type: cell-based; settings: 200 ng daily, vs GFP
Protocol: as §1, §2

N2a cells [5] = experiment: N2a xenograft tumor growth in CD1 nude mice; type: in vivo
Protocol: 1 million N2a cells were suspended in 150 μl of DMEM high glucose and delivered subcutaneously above the left rear paw in 8-week old nu/nu mice (Charles River) by injection with a micro-syringe (Hamilton). All procedures involving animals were approved by Institutional and National Agencies (authorization 559/2016-PR).
Xenograft mouse models represent an established tool to investigate cancer progression in vivo. To this aim, 1 million N2a cells (naive, clone 3, and clone 11) was injected subcutaneously (s.c.) in immunodeficient CD1 nude mice. Tumor volume was monitored […] by measuring tumor size with a Vernier caliper. Tumor volume was calculated using the ellipsoid formula (length×width×height×0.52).
To further assess the anti-neoplastic activity of PepA, 1 million N2a cells were injected s.c in 6-weeks old CD1 nude mice. When the tumor reached 100 mm^3 volume, 2 μg of GFP or PepA were injected in situ. The treatment was repeated every second day, and tumor growth was monitored daily.
Next, 1 million N2a cells were injected s.c in 6-weeks old nude mice. […] The treatment was repeated every second day and the tumor growth was monitored daily.
Treatment was repeated every second day and tumor growth was monitored daily.
To this aim, 1 million N2a cells were injected s.c in 6-weeks old CD1 nude mice. […] The treatment was repeated every second day and the tumor growth was monitored daily.

[6] = Presence in tumor, liver and kidney by STREP-pulldown after in situ injection; type: in vivo, mice; settings: after in situ injection of 2 μg every second day, day 9
Protocol: HEK293 cells transfected with the relative construct were lysed in RIPA buffer (150 mM NaCl, 50 mM HEPES, 0.5% NP40, 1% Sodium-deoxycholate) for one hour at 4° C. and then processed for streptavidin immunoprecipitation. Proteins were eluted from STREP resin in elution buffer (2.5 mM Desthiobiotin, 100 mM Tris-HCL, 150 mM NaCl, 1 mM EDTA) in mild agitation for one hour at 4° C. The protein concentration was measured via standard Bradford assay (Bio-Rad), and protein purity was assessed by SDS-PAGE followed by silver staining. Synthetic peptides were purchased at Genscript Nederland. Mice tissues were lysed in RIPA buffer (150 mM NaCl, 50 mM HEPES, 0.5% NP40, 1% Sodium-deoxycholate, 1 ml/mg of tissue) for one hour at 4° C. and then processed for streptavidin immunoprecipitation. Proteins were eluted from STREP resin in Laemmli buffer.
At day 9 post injection (or earlier in case the tumor reached 2.5 cm^3 volume), the animals were sacrificed and the mice tissues were harvested and analysed for the presence of GFP and PepA.

CD34 = experiment: Tumor neo-vascularization by CD34 immunofluorescence; type: in vivo, mice; settings: tumors treated in situ, vs GFP
Protocol: Tumors were dissected, post-fixed for 2 hours by immersion in 4% PFA, then included in OCT and stored at −80° C. until processing. 14 μm sections were obtained after serial sectioning on Leica cryostat and mounted on Polysine Slides (Thermo Fischer Scientific). The slices were saturated in 2.5% BSA, 10% NGS, 0.2% Triton X-100, PBS 1×, for 1 hour at RT and incubated with the primary antibody O/N at 4° C. (Anti-CD34 antibody [EP373Y], ABCAM, ab81289). After 3 washes in PBS 1×-0.2% Triton X-100 the sections were incubated for 1 h with the conjugated secondary antibody at RT (AffiniPure Goat Anti-Rabbit IgG (H+L) Alexa Fluor 594, Jackson ImmunoResearch, 111-585-003). The slices were then rinsed 3 times in PBS 1×-0.2% Triton X-100, rinsed once in PBS1× and then mounted in water-based mounting media. Sections were kept at 4° C. in the dark until acquisition with a Zeiss Axio Imager M2 equipped with 40× objective.
Cancer growth requires and triggers vascularization. In particular, cancer mass is characterized by the presence of immature vessels decorated by CD34 protein. Thus, the inventors analyzed tumor neo-vascularization by detecting CD34 protein.

ALK = ALK protein expression level in N2a cells, western blotting; type: cell-based, murine; settings: 300 ng/ml daily for 5 days, vs GFP
Protocol: Protein level and relative phosphorylation was assessed by western blotting. Briefly, upon a wash in PBS, cells were solubilized in lysis buffer (150 mM NaCl, 50 mM HEPES, 0.5% NP40, 1% sodium-deoxycholate). After 1 hour under mild agitation, the lysate was clarified by centrifugation for 20 min at 16,000 g. All experimental procedures were performed at 4° C. Protein concentrations were evaluated via Bradford assay (Bio-Rad, USA). For Western blotting experiments, an equal amount of proteins was diluted with 0.25% 5× Laemmli buffer. The samples were separated on 10% SDS-PAGE gels which were transferred onto nitrocellulose membrane (Sigma-Aldrich) at 80 V for 120 min at 4° C. […] Antibodies were applied overnight in blocking buffer (20 mM Tris, pH 7.4, 150 mM NaCl, 0.1% Tween 20, and 5% nonfat dry milk). Proteins were detected using the ECL prime detection system (GE Healthcare). The ECL signals were acquired with the imaging ChemiDoc Touch system (Bio Rad Laboratory Italy, Segrate, Italy). The optical density of the specific bands was quantified with ImageLab software (Bio Rad).

MYCN = MYCN protein expression level in N2a cells, western blotting; type: cell-based, murine; settings: 300 ng/ml daily for 5 days, vs GFP
Protocol: Protein level and relative phosphorylation was assessed by western blotting. Briefly, upon a wash in PBS, cells were solubilized in lysis buffer (150 mM NaCl, 50 mM HEPES, 0.5% NP40, 1% sodium-deoxycholate). After 1 hour under mild agitation, the lysate was clarified by centrifugation for 20 min at 16,000 g. All experimental procedures were performed at 4° C. Protein concentrations were evaluated via Bradford assay (Bio-Rad, USA). For Western blotting experiments, an equal amount of proteins was diluted with 0.25% 5× Laemmli buffer. The samples were separated on 10% SDS-PAGE gels which were transferred onto nitrocellulose membrane (Sigma-Aldrich) at 80 V for 120 min at 4° C. […] Proteins were detected using the ECL prime detection system (GE Healthcare). […] The optical density of the specific bands was quantified with ImageLab software (Bio Rad).
The inventors monitored whether treatment with rNegr1 or PepA might impact on ALK-MYCN pathway. […] At DIV5, the culture was processed for western blotting and ALK and MYCN protein expression levels were evaluated.
At DIV5, the culture was processed for western-blotting, and ALK and MYCN protein expression was evaluated.

Molecule | N2a proliferation (cell number) at DIV5 (N2a cells [1]) | N2a growth (MTT) at DIV5 (N2a cells [2]) | growth of A549 cells (MTT) at DIV5 [3] | growth of MCF7 cells (MTT) at DIV5 [4] | growth of SH-SY5Y cells (MTT) at DIV5 (SH-SY5Y (neuroblastoma)) | growth of SK-Mel5 cells (MTT) at DIV5 (SK-Mel5 (melanoma)) | growth of U87 cells (MTT) at DIV5 (U87 (glioblastoma)) | tumor growth (tumor volume, fold over day 1) (N2a cells [5]; 2 μg in situ every second day, vs GFP) | tumor growth (tumor volume, fold over day 1) (N2a cells [5]; 10 μg in situ every second day, vs PEG-scramble peptide) | presence in mice tissues (STREP-pulldown) [6] | tumor vascularization (total area stained by CD34 and average vessel area) (CD34) | ALK protein level (ALK) | MYCN protein level (MYCN)
PepC: Negr1 IgG-like domain, SEQ ID NO:17, strep-FLAG tagged recombinant protein (protein, strep-FLAG tag; PepC) APTIQEIKSGTVTPGRSGLIRCEGAGVPPPAFEWYKGEKRLFNGQQGIIIQNFSTRSILTVTNVTQEHFGNYTCVAANKLGTTNASLP | did not | – | – | – | – | – | – | – | – | – | – | – | –
PepA: first Negr1 IgG-like domain, SEQ ID NO:8, strep-FLAG tagged recombinant protein from HEK293 cells (protein, strep-FLAG tag; PepA) VDFPWAAVDNMLVRKGDTAVLRCYLEDGASKGAWLNRSSIIFAGGDKWSVDPRVSISTLNKRDYSLQIQNVDVTDDGPYTCSVQTQHTPRTMQVHL | significantly reduced N2a proliferation | significantly reduced N2a growth | significantly reduce the growth | significantly reduce the growth | significantly reduce the growth | significantly reduce the growth | significantly reduce the growth | robust growth reduction in tumor | robust growth reduction in tumor | present in the tumor, liver, and kidney | strongly reduced vascularization | robust reduction of ALK and MYCN protein levels | robust reduction of ALK and MYCN protein levels
PepB: Negr1 IgG-like domain, SEQ ID NO:16, strep-FLAG tagged recombinant protein (protein, strep-FLAG tag; PepB) PKIYDISNDMTINEGTNVTLTCLATGKPEPVISWRHISPSAKPFENGQYLDIYGITRDQAGEYECSAENDVSFPDVKKVRVI | did not | – | – | – | – | – | – | – | – | – | – | – | –
